Assay: label from the status in PepcDB records

In the case of “MAFELSPSDLEPLLQGACFFGSGGGGTMISARHLAANFRKGDYYPTDKVRVVDVDEATDGDCVMVAYMGAPDAINQVQWPNGPVEAALAARQRLESQGRKLAYVVAPESGALGFVVASLVAAKLGLAVVDADGAGRAVPSLPMLTYAAAGVPPTPAFLAGESGLCVELGVRMPPPDGQRREDISTVVEQMLRPILTNPQFGQFGGLAMWMMSPAQLGGALPVRGTLSRALKLGRALQDGKVKTAEAMLDFLRRELDIKGKLLFGPATLASSEVSTAGGFDLGKVVLEDGERRCTVLYQNESLLAWDSALSHPLATAPDAISYFVEGEGQHVFSNGDLSGNDHGLDPSVRGRKAAVIALPAAAPLSEGLILQSFADELAQLGYLGPYAPVDAGREGARLEHHHHHH”, the protein production is reported as “not failed”.
For “MKLVNVTNSYKQLVNKQLENTDAYFVKVYSAGNTTAVYSEAAHHVEVLIMNKNRRIRPTEVKEILAKLLKRLPKEAYDPDEISIIELNHVTEVSVPLKVSLME”, the protein production was “failed”.
For “GTQAGVPAWSTIKVPISIAALRANPGNDVLMRQAITVSDNDAARALWDSLGSPREKVGAVLAQGGDPQTQVNDQPGMRTFC”, the protein production was “failed”.
With “MPTPIHVLPPHVARLIAAGEVVSRPLDVVRELVENALDAGASRIEIEVDGGGLERVQVRDNGSGIAAQSVPLAPARHATSKLTAGPETGSLSVTTLGFRGEALWAAAQAGELELTTRPAAQVGAARLRAQGDAVEVSRTSAPAGTTVTVSQLFARLPARLRTQASAAAEVRDITALLGRYVLHHSALHWRLTVDGDPRLTHAPADHRGAVATVYGPLSANRVLTLDTPGVRGVVSRPELTRARRDRMHFAVNGRPIVAPPELERAVIDAYAELLPAGTAPLCVLDLTVAPEDYDPNIHPAKQVVALADLPAVALRVRDAVAGALAGHPLVRAAPALIAPPEPHPAPTAGNFPDLTLLGVYQELYLLAQGEGDLWVVDAHAAHERALYERLGRELGTAAPLELPTPELLHLTPEQTARLHERGAELRGWGLTIEDFGAGLARLRTLPAALAALPVPRLHEVVVETALSGGPDPRREVLARLACLPALKAGMLDAERGALVLAALRECEQPWACPHGRPTVLRLSERDLAHAFGRRGVRDVARGRDSVV” the protein production was “failed”.
With “MSEPMSERERWQLELDKLQRGLQGDPFAFLGPQRDPGGEGGVLRAYLPGAQRVELLDEDGATLAELEQSDPGSGLFQRHLERLPPRYRLRVHWPDGVQESEDPYAFGPLLGELDLYLFAEGNHRQLASCLGAQLTRHEGVEGVRFAVWAPNAVRVSVVGDFNGWDGRRHPMRRRYPSGVWELFVPRLGEGELYKYELQGHDGLLPLKADPLALACETPPGTASKTCAALRHEWRDQDWLARRAERQGYAAP” the protein production was “failed”.
In the case of “MCSKQSANQQISYRQTAEATLDKGMDNQPEAPYWFPKQLLKWQLSKDKAAKYNTASVPLAKRIDKWQLPTVNKTQDPKMKVVALSIMNSSTSGNAPRGINTFDANVFSNWQYIDQLVYWGGSAGEGLIVPPTADVIDSAHKNGVPVLGTVFFPQVVSGGKLKWLNDFLKQDADGHFPMADKLVAVAKAYGFDGWFINQETDPEVKSFDSASTGKTATSSTSNGLSKKHAQLMQQLIKEYKQKAGSKLDLMWYDSMTKDGKMDWQNALTKENQSYLVDANMKPVADSMFLNFWWTKKRLASQELLKKSHERAEKLGISPYNLFAGIDVQADGTATPVRWNLFANKQHVPYTSLGLYAPDWTHASSDTVDEFQAKEGALWVNDQNDPSRSIPSTTSTHWPGVSTYAVEQSAITKQPFVTNFSLGNGYNYFIKLEHHHHHH”, the protein production is reported as “failed”.
With “MKRSTEFLKSLDVKLILILLALCVTSIAAIYSSQQTGQYGESNFAMKQGLNYIIGVVLLLLVASIDLDQLQKLSWPLYIVGFASLILLKILPVSTFTPEKLGAKRWFVFPLVGQIQPSEFFKISLLLVVASIAVKHNAQYMARTFQTDLKLVGKIVLVSLPPIAVVYSQPDTGMVFLYAAAIACILFMSGIQKKLIALCTVIPVTILSTLIFIYVRYEDFFFNKLVTLLKPHQQSRILGWLDPFEHTDQGYQTQQSILAVGSGGMEGKGFGEGNVYIPEKHTDFIFATIAEEGGFIVAALVVFLFLLLLYRTIIIGYSADNLFGTLLCAGSIGILTVQIFQNIGMIVGLMPVKGIALPFLSYGGSSLFSNMIMMGLILSVRKTYKKYMFSVK” the protein production was “failed”.
For “MEYELLIREAEPKDAAELVAFLNRVSLETDFTSLDGDGILLTSEEMEIFLNKQASSDNQITLLAFLNGKIAGIVNITADQRKRVRHIGDLFIVIGKRYWNNGLGSLLLEEAIEWAQASGILRRLQLTVQTRNQAAVHLYQKHGFVIEGSQERGAYIEEGKFIDVYLMGKLIG”, the protein production was “not failed”.
In the case of “GSKGSRIELGDVTPHNIKQLKRLNQVIFPVSYNDKFYKDVLEVGELAKLAYFNDIAVGAVCCRVDHSQNQKRLYIMTLGCLAPYRRLGIGTKMLNHVLNICEKDGTFDNIYLHVQISNESAIDFYRKFGFEIIETKKNYYKRIEPADAHVLQKNLKVPSGQNADVQKTDN”, the protein production is reported as “failed”.
With “MNQPFLSVVIATFNVAEVLRECLHSLASQTFRDFEVVIQDGASTDGTLAVAQEAAGRLPRLSLASVADSGIYDAWNRALPRVTGDWVLFLGSDDTLAGPDVLAQCARRLADLPPQVLYACGDALEVYPDGSSRAVTCTAEGATRRMADHIPFCHSSLWHRACLFEARHFDATLRIAADYDLICRTWPHDGVGHTLGITVTHMGVGGVSSSPAHRLRTQWELVRVAARHGHGAFSRRRLVPLCKAVGLWVLCRLAGRRASVMLDRLRVMRGLPPCWTTADPARVGGRDSARGDALEHHHHHH” the protein production was “failed”.
For “GHMEERVLGMPAVESNMFPLGKQAPPFALTNVIDGNVVRLEDVKSDAATVIMFICNHCPFVKHVQHELVRLANDYMPKGVSFVAINSNDAEQYPEDSPENMKKVAEELGYPFPYLYDETQEVAKAYDAACTPDFYIFDRDLKCVYRGQLDDSRPNNGIPVTGESIRAALDALLEGRPVPEKQKPSIGCSIKWKPSA”, the protein production was “not failed”.
With “MSVKVSVDDIDGITEVLNVYMNAAESGTGEEMSAAFHKDATIFGYVGDKLAFNGPIKDLYDWHNSNGPAKNVQSRITNIDIVGTVAHARVEAENWTNFKFSDLFLLLKLDGKWTIVNKVFHLHA” the protein production was “not failed”.
With “MSYAGDITPLQAWEMLSDNPRAVLVDVRCEAEWRFVGVPDLSSLGREVVYVEWATSDGTHNDNFLAELRDRIPADADQHERPVIFLCRSGNRSIGAAEVATEAGITPAYNVLDGFEGHLDAEGHRGATGWRAVGLPWRQG” the protein production was “not failed”.
With “MGKQESEKTVTGSDGSGRYERKALIDKLYETQELSREEWIRLIEGRTPELSEYLFEKARAVREREYGKAVYIRGLIECSNYCRNNCYYCGIRRGNQNAQRYRLTADEILSCCENGYSLGFRTFVLQGGEDPAMTDGWVADVIRRIKKEFPDCAVTLSLGEKSEAAYQCLFDAGADRYLLRHETADADHYGKLHPDGLSLAHRMECLRTLKRIGFQTGCGFMVGSPGQTPECLAKDMAFIRELNPQMVGIGPFIPQHDTPFRDERAGAFEETLWLLGLIRLMLPRVLLPATTALGTIHPKGRELGMLAGANVVMPNLSPLGVRKKYLLYDNKICTGDEAAESLNSLKESMKAIGYEVAVGRGDYRL” the protein production was “failed”.
For “MEEMNVFLTMIYRELKRFIRSPSRIIGSILNPLLWLIFFGKGWSGVFNFPMATRIFGGVDYMTYLVPGVVVMTVFDMSFLQGLTIIWDKQFGFMKEILVAPASRVESILGRITGGAIVAMIQGFIMVALSFIVANLKVSGVIPTLILAFFVGVAIAGLGVAVALKMSSMEGFQIIVMMLMLPMMFLSGAFYPVRTMPNWMQWLAKINPLTYAVDGARYYLAGVTPTFGIMQDWIVLILLALVFAGFAGLEFRKAYLS”, the protein production was “failed”.
In the case of “MHAELYRTRKRWYESAWPGAGFWRGANDTLPVTNYITYPANFDQPDGQSLTPLTMAAMMGNVKFVKTLLSHYDVDLDRECNVIYDGMVVYGATALWVAAGMGHLQIVKMLVQAGAAINHNTKAQSSPLRAACYEGRLDIVEFLIDNGADVNATNLFNNNTLMIAAYKGHHLVVKTLLQNGSRANDQALCGATALHYAAESGHLDVVVALLDHGATLKKNELGITPALQAAERLHEDVLEAFIERPELMSLEEQITALELLGATYANDKIKYDVNKAYGYLLRAMQLRYSNPRGVIRKRVQPTVPAYDNWLETENLPELYAIKLNHHSIHMESLAIRERILGRNNPELPQAIIYRGAVMADQGRFYQCQVLWNYAIDLRMRNNVSVDRDLLRFAQLFAQILRVENHNLTLDHVLPVLAKCQQEIENNKFKIKEAKPNACPSLWQDQNNQNCITALYLIKIVTHLARRKKDQNIDEEHIQQLFLVVRKFIQNDTRLQDGQTLLHIAVNGVMPVDEFYTNEMCRFPCYATALVLVHCGASVVAVDSDRNTPLHILVTKVNTTQDRQAEMARILELFVEAGAHLDAVNAAGQTAATACKLPILANRLHAHQNAHTSLKCLAARSIATNRLNFKGLIPTQLEAFIQMHSVRKVLP”, the protein production is reported as “failed”.
For “LTTTSADYIGPIVEHQYLQWDNWPRLGEILRSEKPLAFQQESRFAHDTRARDAFNDAMVRLSQPMVDVVSELGVFARARTVIDLAGGHGTYLAQVLRRHPQLTGQIWDLPTTRDAARKTIHAHDLGGRVEFFEKNLLDARNFEGGAADVVMLNDCLHYFDAREAREVIGHAAGLVKPGGALLILTMTMNDDRVTPALSADFSLHMMVNTNHGELHPTPWIAGVVRDAGLAVGERSIGRYTLLIGQRSSGEV”, the protein production was “failed”.
With “MEPLGNRRPCSVCITKNRNCPRFCEYAEYFPYELQSQYESANELFGTPNIITMMQHAPEEKKQMLATSIIMEGNAWTEDPISGGFGMIQKLMWKIMLHKAYLRELQEKIKEEKEKKPASSLY” the protein production was “failed”.
With “MSCGYTGPINEQNKENIKRAIAMHAAARRTRMLQQLREGLQLYRLVDIMEKNKEVCRSHFVFEGGNDQVDSQYIVSHLDPKMSESGTLKHSKEMQILNNFQDFLMELEDGGPEDEEALCVSKVMQWLSGQAHVHLLLSERQAFKITVLFDHTCMERMPDHRICYPVDSAWTQTITFPTAHSTSLNQFKENMRIAVQQGAYFYRV” the protein production was “failed”.
In the case of “VTSDPGTAAPVKRTAEQSRSLIVDAAGRAFATRPYREITLKDIAEDAGVSAPLIIKYFGSKEQLFDALVDFRAAAEIVFSGPLDGLGERMVSMFARPLEPYKPLSLNILFMSGPSEESSRKLRANYSAQMIDALAERLPGRDARLRAELVMSMLTGLAVMRRKMMQEHATGTPEEVVAHYAPLVQELLDG”, the protein production is reported as “not failed”.
With “MRTLNKDEHNYIKQIANIHETLLSQVESNYKCTKLSIALRYEMICSRLEHTNDKIYIYENEGQLIAFIWGHFSNEKSMVNIELLYVEPQFRKLGIATQLKIALEKWAKTMNAKRISNTIHKNNLPMISLNKDLGYQVSHVKMYKDID” the protein production was “not failed”.
With “MAIKITPDEFSLLIQRLNKKWRVFAPSAEFRGGRFSDTDNIIYQRISGWRDLIWHEKSHMSPNTIIAPITETLFYFDKDTIQIAETDTSPIIIFARACDINAMSRLDYMYLSNGNNSDYSYQLLREHIRFVLIECEKSFENCFCVSMGTNKTDCYSAAMRFSDEGALVSIRDPFIEAAIQGLGQEADYTPSFVSENRETVVTPDSVCRDPQKIRDILTRHPLWDAYDSRCISCGRCTTGCPTCTCYSVFDVAYDENPQRGERRRQWASCMVPGFSDMAGGHGFREKPGERLRYRALHKVNDYKARNGIEHMCVGCGRCDDRCPQYIKFSLIINKMTAAVRQALAEEA” the protein production was “failed”.
In the case of “MSRTILQPGQIEAAANIPPHLHQPSRDLFARRGERLLQLAEGHPMGDYLRLVAGLCRLQQALLDNPPALAPLDPERLRKSREHGMPPLAYDLLVREGAWLPWLDALLAGYPAPANAAVGAALEQLREAEEGQRKAWAIALLSGQFDLLPAALVPFLGAALQVAWSHWLLGLEEGAVVETESRTLCPACGSPPMAGMIRQGGKETGLRYLSCSLCACEWHYVRIKCSHCEESKHLAYLSLEHDGQPAEKAVLRAETCPSCQGYLKQFYLEFDRHADALADDLASLALDMRLAEDGYLRRSPNLLLAPGGE”, the protein production is reported as “not failed”.
In the case of “GSSGSSGWVAFDKQVLSFDAYLEEEVLDKSQTNYRIRYYKIYFYPEDDTIQVNEPEVKNSGLLQGTSIRRHRITLPPPDEDQFYTVYHFNVGTEVVFYGRTFKIYDCDAFTRNFLRKIGVKVNPPVQSGPSSG”, the protein production is reported as “not failed”.

Source: a protein production outcome set (Wang et al. 2014)
